Laboratory results from the supplement of paper PMC10201428.
± gives the standard deviation of the averaged measurements.

B1: library; a variant is named by its letters at N, in order (parent)
chain: AATGTTGTTGATGCAACCATAAAGTGATATTTAATAATTATTTATAATCAGCAACTTAACCACAAAACAACCATATATTGATATNTCACAAAACAACCATAANTTGATATTTTTGTGAATCGAGTATTTCAGCAAAACTACTGCAGTAAGAA

Key:
[1] = variants of: B1; experiment: relative integration efficiency (T-LR orientation) vs wild-type transposon end (log2 (normalized fold change)); transposon end mutated: left end; higher = more efficient transposition; conditions: with VchCAST RNA-guided transposition machinery (E. coli BL21(DE3) host, lacZ target)
Method in brief: (§1)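 Barcode abundances in input plasmids and in genomic integration junctions were obtained by PCR amplification and Illumina sequencing. These came from E. coli BL21(DE3) co-transformed with a T7-driven effector plasmid and a pUC57 donor carrying 1549 left-end or 1849 right-end transposon variants, then plated with 0.1 mM IPTG at 37°C for 18 h. Relative integration efficiency is the output/input fold change, normalised to reference barcodes and log-transformed.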

[2] = variants of: B1; experiment: relative integration efficiency (T-RL orientation) vs wild-type transposon end (log2 (normalized fold change)); transposon end mutated: left end; higher = more efficient transposition; conditions: with VchCAST RNA-guided transposition machinery (E. coli BL21(DE3) host, lacZ target)
Method in brief: as §1

Variant | relative integration efficiency (log2) [1] | relative integration efficiency (log2) [2]
AATGTTGTTGATGTAACCATAAAGTGATATTTAATAATTATTTATAATCAGCAACTTAACCACAAAACAACCATATATTGATATCTCACAAAACAACCATAAGTTGATATTTTTGTGAATCGAGTATTTCAGCAAAACTACTGCAGTAAGAA [CG C14T] | 0.167 ± 0.37 | -0.295 ± 0.18
AATGTTGTTGATGCAACCATAAAGGTCGATTTAATAATTATTTATAATCAGCAACTTAACCACAAAACAACCATATATTGATATCTCACAAAACAACCATAAGTTGATATTTTTGTGAATCGAGTATTTCAGCAAAACTACTGCAGTAAGAA [CG T25G G26T A27C T28G] | -2.73 ± 1.1 | -2.55 ± 0.99
AATGTTGTTGATGCAACCATAAAGTGATATTTAATAATTATTTATAATCAGCAACTTAACCACAAAAGTTGCATATATTGATATCTCACAAAACAACCATAAGTTGATATTTTTGTGAATCGAGTATTTCAGCAAAACTACTGCAGTAAGAA [CG C68G A69T A70T C71G] | -0.963 ± 0.71 | -1.93 ± 0.91
AATGTTGTTGATGCAACCATAAAGTGATATTTAATAATTATTTATAATCAGCAACTTAACCACAAAACAACCATATATTGATATCTCACAAAACAACCATAAGTTGATATTTTTCAGAATCGAGTATTTCAGCAAAACTACTGCAGTAAGAA [CG G115C T116A] | 0.199 ± 0.12 | -0.00924 ± 0.092
AATGTTGTTGATGCAACCATAAAGTGATATTTAATAATTATTTATAATCAGCAACTTAACCACAAAACAACCATATATTGATATCTCACAAAACAACCATAAGTTGAGCTTTTTGTGAATCGAGTATTTCAGCAAAACTACTGCAGTAAGAA [CG T108G A109C] | -0.995 ± 1 | -1.16 ± 0.59
AATGTTGTTGATGCAACCTATTAGTGATATTTAATAATTATTTATAATCAGCAACTTAACCACAAAACAACCATATATTGATATCTCACAAAACAACCATAAGTTGATATTTTTGTGAATCGAGTATTTCAGCAAAACTACTGCAGTAAGAA [CG A19T T20A A21T A22T] | -1.03 ± 0.48 | -1.21 ± 0.46
AATGTTGTTGATGCAACCATAAAGTGATATTTAATAATTATTTATAATCAGCAACTTAACCACAAAACACCCATAAATTGATAATTAACAAAACAACCATAAAGTGATATTTATGTGAATCGAGTATTTCAGCAAAACTACTGCAGTAAGAA [TA A70C T76A T84A C87A T104G T113A] | 0.771 ± 0.098 | 0.69 ± 0.33
AATGTTGTTGATGCAACCATAAAGTGCGATTTAATAATTATTTATAATCAGCAACTTAACCACAAAACAACCATATATTGATATCTCACAAAACAACCATAAGTTGATATTTTTGTGAATCGAGTATTTCAGCAAAACTACTGCAGTAAGAA [CG A27C T28G] | -0.919 ± 0.29 | -1.27 ± 0.47
AATGTTGTTGATGCAACAATAAAGTGATATTTAATAATTATTTATAATCAGCAACTTAACCACAAAACAACCATATATTGATATCTCACAAAACAACCATAAGTTGATATTTTTGTGAATCGAGTATTTCAGCAAAACTACTGCAGTAAGAA [CG C18A] | 0.107 ± 0.17 | -0.181 ± 0.016
AATGTTGTTGATGCAACCATAAAGTGATATTTAATAATTATTTATAATCAGCAACTTAACCACAAAACAACCATATATTGATAGATCACAAAACAACCATAAGTTGATATTTTTGTGAATCGAGTATTTCAGCAAAACTACTGCAGTAAGAA [AG T84G] | -0.223 ± 1.1 | -0.407 ± 0.3
AATGTTGTTGATGCAACCATAAAGTGATATTTAATAATTATTTATAATCAGCAACTTAACCACAAAACAACCCGATATTGATATCTCACAAAACAACCATAAGTTGATATTTTTGTGAATCGAGTATTTCAGCAAAACTACTGCAGTAAGAA [CG A73C T74G] | -2.3 ± 0.72 | -2.37 ± 0.86
AATGTTGTTGATGCAACCATAAAGTGATATTTAATAATGCGTACTAGTTAACTAGTTCGACACAAAACAACCATATATTGATATCTCACAAAACAACCATAAGTTGATATTTTTGTGAATCGAGTATTTCAGCAAAACTACTGCAGTAAGAA [CG T39G A40C T41G T43A A44C A47G C49T G51A A53T C55G A58C A59G C60A] | -5.96 ± 2.7 | -4.12 ± 1.1
AATGTTGTTGATGCAACCATAAAGTGATATTTAATAATTATTTATAATCAGCAACTTAACCACAAAACAACCATATATTGATATCTCACAAAACAACCATAAGTTCATATTTTTGTGAATCGAGTATTTCAGCAAAACTACTGCAGTAAGAA [CG G106C] | -2.1 ± 1.4 | -1.81 ± 0.62
AATGTTGTTGATGCAACCATAAAGTGATATTTAATAATTATTTATAATCAGCAACTTAACCACAAAACAACCATATATTGATATCTCACAAAACAACCATAAGTTGATATTTTTGTGAAACGAGTATTTCAGCAAAACTACTGCAGTAAGAA [CG T120A] | 0.11 ± 0.41 | -0.141 ± 0.026
AATGTTGTTGATGCAACCATATATTGATATCTCATAATTATTTATAATCAGCAACTTAACCACAAAACAACCATAAGTTGATATTTTACAAAACAACCATAAGTTGATATTTTTGTGAATCGAGTATTTCAGCAAAACTACTGCAGTAAGAA [TG A22T G24T T31C A33C T76A A77G C87T] | -0.123 ± 0.13 | -0.61 ± 0.41
AATGTTGTTGATGCAACCATAAAGTGATATTTAATAATTATTTATAATCAGCAACTTAACCACAAAACAACCATATATTGATATCTCACAAAACAACCATAAGTTGATAAAAATGTGAATCGAGTATTTCAGCAAAACTACTGCAGTAAGAA [CG T110A T111A T112A T113A] | -0.328 ± 0.56 | -0.587 ± 0.42
AATGTTGTTGATGCCACCATAAAGTGATATTTAATAATTATTTATAATCAGCAACTTAACCACAAAACCACCATATATTGATATCTCACAAAACCACCATAAGTTGATATTTTTGTGAATCGAGTATTTCAGCAAAACTACTGCAGTAAGAA [CG A15C A69C A95C] | -0.511 ± 0.34 | -0.731 ± 0.34
AATGTTGTTGATGCAACCATAAAGTGATATTTAATAATTATTTATAATCAGCAACTTAACCACAAAACACCCATAAATTGATATTGCACAAAACACCCATAAATTGATAATTATGTGAATCGAGTATTTCAGCAAAACTACTGCAGTAAGAA [TA A70C T76A T86G A96C T110A T113A] | -0.0134 ± 0.035 | -0.255 ± 0.15
AATGTTGTTGATGCAACCATATTCAGATATTTAATAATTATTTATAATCAGCAACTTAACCACAAAACAACCATAATAAGATATCTCACAAAACAACCATATCAAGATATTTTTGTGAATCGAGTATTTCAGCAAAACTACTGCAGTAAGAA [CC A22T A23T G24C T25A T76A A77T T78A T79A A102T T104A T105A] | -2.83 ± 0.82 | -3 ± 1.3
